Biological target: T1, Vascular endothelial growth factor receptor 2 (VEGFR-2) (human (endogenous in placenta), UniProt P35968 20-1356)
T1 construct: VEGF receptor-2 (VEGFR-2, also known as KDR), human, endogenous in placental tissue; precipitated with a monoclonal VEGFR-2 antibody (Cell Signaling Technology); Endogenous receptor in frozen placental tissue lysates; bait of the co-immunoprecipitation; also called VEGF receptor-2; KDR; source: endogenous, human placental tissue lysate
Assay: co-IP; human placental tissue lysates (8, 12 and 35 weeks of gestation; preeclamptic placentae), 500 ug protein, precleared with Protein-A Agarose, precipitated with 1 ug monoclonal VEGFR-2 antibody overnight at 4 C, washed 3 times in ice cold RIPA buffer, blotted for sFlt-1
Details: partners not purified

T1 sequence (P35968 20-1356): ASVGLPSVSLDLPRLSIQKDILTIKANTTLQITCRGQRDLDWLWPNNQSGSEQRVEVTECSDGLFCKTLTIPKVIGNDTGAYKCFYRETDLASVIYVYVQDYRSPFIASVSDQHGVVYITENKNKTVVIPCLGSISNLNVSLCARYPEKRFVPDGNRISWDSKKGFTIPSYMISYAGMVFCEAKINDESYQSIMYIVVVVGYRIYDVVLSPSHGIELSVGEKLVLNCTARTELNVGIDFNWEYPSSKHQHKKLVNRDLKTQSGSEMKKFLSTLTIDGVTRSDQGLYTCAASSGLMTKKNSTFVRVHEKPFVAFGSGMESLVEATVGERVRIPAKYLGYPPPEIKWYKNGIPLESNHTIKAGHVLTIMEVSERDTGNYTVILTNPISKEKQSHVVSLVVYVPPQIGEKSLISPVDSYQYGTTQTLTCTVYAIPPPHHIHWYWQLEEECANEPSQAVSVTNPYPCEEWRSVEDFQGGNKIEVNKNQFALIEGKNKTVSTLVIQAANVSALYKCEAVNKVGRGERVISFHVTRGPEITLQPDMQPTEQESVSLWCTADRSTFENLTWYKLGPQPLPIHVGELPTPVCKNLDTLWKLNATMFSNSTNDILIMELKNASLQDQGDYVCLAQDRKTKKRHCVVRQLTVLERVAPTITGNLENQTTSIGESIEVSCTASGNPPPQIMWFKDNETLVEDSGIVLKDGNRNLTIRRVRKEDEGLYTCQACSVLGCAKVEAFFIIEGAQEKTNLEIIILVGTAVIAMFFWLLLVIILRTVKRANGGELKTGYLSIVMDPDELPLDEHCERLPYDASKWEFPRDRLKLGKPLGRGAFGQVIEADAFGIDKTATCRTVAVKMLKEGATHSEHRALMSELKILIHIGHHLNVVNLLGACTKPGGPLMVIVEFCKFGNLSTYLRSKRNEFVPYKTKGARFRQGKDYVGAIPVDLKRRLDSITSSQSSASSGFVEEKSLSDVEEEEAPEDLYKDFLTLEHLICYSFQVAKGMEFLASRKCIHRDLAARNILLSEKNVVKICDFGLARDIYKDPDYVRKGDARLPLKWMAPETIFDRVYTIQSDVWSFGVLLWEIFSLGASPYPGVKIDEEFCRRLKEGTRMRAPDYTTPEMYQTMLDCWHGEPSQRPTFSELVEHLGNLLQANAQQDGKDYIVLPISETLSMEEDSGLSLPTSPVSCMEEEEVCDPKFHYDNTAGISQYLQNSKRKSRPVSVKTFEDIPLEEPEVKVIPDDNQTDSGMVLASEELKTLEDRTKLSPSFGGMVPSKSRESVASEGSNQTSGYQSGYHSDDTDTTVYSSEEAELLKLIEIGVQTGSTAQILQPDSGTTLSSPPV

B1: soluble VEGF receptor-1 (sFlt-1), 105 kDa species (sFlt-13) (natural protein, human (endogenous in placenta), UniProt P17948-2 27-687, looked up)
chain: SKLKDPELSLKGTQHIMQAGQTLHLQCRGEAAHKWSLPEMVSKESERLSITKSACGRNGKQFCSTLTLNTAQANHTGFYSCKYLAVPTSKKKETESAIYIFISDTGRPFVEMYSEIPEIIHMTEGRELVIPCRVTSPNITVTLKKFPLDTLIPDGKRIIWDSRKGFIISNATYKEIGLLTCEATVNGHLYKTNYLTHRQTNTIIDVQISTPRPVKLLRGHTLVLNCTATTPLNTRVQMTWSYPDEKNKRASVRRRIDQSNSHANIFYSVLTIDKMQNKDKGLYTCRVRSGPSFKSVNTSVHIYDKAFITVKHRKQQVLETVAGKRSYRLSMKVKAFPSPEVVWLKDGLPATEKSARYLTRGYSLIIKDVTEEDAGNYTILLSIKQSNVFKNLTATLIVNVKPQIYEKAVSSFPDPALYPLGSRQILTCTAYGIPQPTIKWFWHPCNHNHSEARCDFCSNNEESFILDADSNMGNRIESITQRMAIIEGKNKMASTLVVADSRISGIYICIASNKVGTVGRNISFYITDVPNGFHVNLEKMPTEGEDLKLSCTVNKFLYRDVTWILLRTVNNRTMHYSISKQKMAITKEHSITLNLTIMNVSLQDSGTYACRARNVYTGEEILQKKEITIRGEHCNKKAVFSRISKFKSTRNDCTTQSNVKH
notes: sFlt-1, truncated soluble splice variant of VEGFR-1 (six extracellular IgG like domains with a unique C-terminus), human; isoform assigned by the authors from the band size; Detected by blot with an sFlt-1 antibody (AF321, R&D Systems) in VEGFR-2 immunoprecipitates; also called soluble VEGFR-1; source: endogenous, human placental tissue lysate
- fold co-immunoprecipitated sFlt-1 (densitometry), PE over PTC placentae: 5.98 fold
